In US20060148055A1 (published 2006):
No end group written: not given here. MDA = malondialdehyde

B1: multiple antigenic peptide SEQ ID NO: 1 MDA-conjugated (mapped peptide) (peptide)
peptide: ALQYKLEGTTR
modifications: also: multiple antigenic peptide, branching core and copy number not given here, MDA-conjugated, site not given here

Target: scavenger LDL receptor in monocytes
Test: cell-based or functional assay

| Binder | Mean fluorescence (Ex 520 nm, Em 590 nm) of DiI-labelled oxidised LDL (50 ug) taken up by lipid-starved U937 monocytes with 500 ug peptide as competitor; oxidised LDL alone 3433, Control 1657 |
| --- | --- |
| B1 | 2610 fluorescence (unit not printed) |
| ALSLSNKFVEG [peptide SEQ ID NO: 3] | 1760 fluorescence (unit not printed) |
| ALQYK(MDA)LEGTTR (not fully specified) [peptide SEQ ID NO: 1 MDA-conjugated] | 2130 fluorescence (unit not printed) |
| RLTRK(MDA)RGLKLA [peptide SEQ ID NO: 2 MDA-conjugated] | 2450 fluorescence (unit not printed) |
| ALSLSNK(MDA)FVEG [peptide SEQ ID NO: 3 MDA-conjugated] | 2000 fluorescence (unit not printed) |
| RLTRKRGLKLA [peptide SEQ ID NO: 2] | 1410 fluorescence (unit not printed) |
